Measured values reported in article PMC8766921 (Molecular biotechnology, 2021).

Molecular target: the molecule itself
Assay: SDS-PAGE under reducing and non-reducing conditions

B1: BMP-4 growth factor (GF) from the B2/4 construct (BMP-2 pro-domain and BMP-4 GF sequence) (ligand, human, UniProt P12644 293-408, looked up)
chain: SPKHHSQRARKKNKNCRRHSLYVDFSDVGWNDWIVAPPGYQAFYCHGDCPFPLADHLNSTNHAIVQTLVNSVNSSIPKACCVPTELSAISMLYLDEYDKVVLKNYQEMVVEGCGCR
modifications: two N-linked glycans
stoichiometry N: 2
